B1: DVD3238 (bispecific antibody, IgG1)
VH: EVQLVESGGGLVQPGGSLRLSCAASGFSFSKYWLGWVRQAPGKGLEWVSDIYPGYDYTHYNEKFKDRFTISADTSKNTAYLQMNSLRAEDTAVYYCARSDGSSTYWGQGTLVTVSSGGGGSGGGGSEVQLVQSGAEVKKPGASVKVSCKASGYTFNNYGIIWVRQAPGQGLEWMGWINTYTGKPTYAQKFQGRVTMTTDTSTSTAYMELSSLRSEDTAVYYCARKLFNTVAVTDNAMDYWGQGTTVTVSS
VL: DIQMTQSPSSLSASVGDRVTITCTSSQNIVHSNGNTYLEWYQQKPGKAPKLLIYKVSNRFSGVPSRFSGSGSGTDFTLTISSLQPEDFATYYCFQVSHVPYTFGQGTKVEIKRGGSGGGGSGDIQMTQSPSSLSASVGDRVTITCRASQDIENYLNWYQQKPGKAPKLLIYYTSRLQSGVPSRFSGSGSGTDFTLTISSLQPEDFATYFCQQGNTQPPTFGQGTKLEIKR
B2: DVD3267 (bispecific antibody, IgG1)
VH: EVQLVESGGGLVQPGGSLRLSCAASGFSFSKYWLGWVRQAPGKGLEWVSDIYPGYDYTHYNEKFKDRFTISADTSKNTAYLQMNSLRAEDTAVYYCARSDGSSTYWGQGTLVTVSSASTKGPSVFPLAPEVQLQQSGPELVTPGASVKISCKASGYTFTKYWLGWVKQSHGKSLEWIGDIYPGYDYTHYNEKFKDTATLTVDKSSSIAYMEIRGLTSEDSAVYYCARSDGSSTYWGQGTLVTVSA
VL: DIQMTQSPSSLSASVGDRVTITCTSSQNIVHSNGNTYLEWYQQKPGKAPKLLIYKVSNRFSGVPSRFSGSGSGTDFTLTISSLQPEDFATYYCFQVSHVPYTFGQGTKVEIKRTVAAPDVQMIQSPSSLSASLGDIVTMTCTSSQNIVHSNGNTYLEWFQQKPGKAPKLLIYKVSNRFSGVPSRFSGSRYGTDFTLTISSLEDEDLATYFCFQVSHVPYTFGGGTKLEIKR
B3: DVD2766 (bispecific antibody, IgG1)
VH: EVQLVESGGGLVQPGGSLRLSCAASGFTFSNYGVEWVRQAPGKGLEWVSGIWADGSTHYADTVKSRFTISRDNSKNTLYLQMNSLRAEDTAVYYCAREWQHGPVAYWGQGTLVTVSSASTKGPEVQLVESGGGLVQPGGSLRLSCAASGFSLTNNNVNWVRQAPGKGLEWVGGVWAGGATDYNSALKSRFTISRDNSKNTAYLQMNSLRAEDTAVYYCARDGGYSSSTLYAMDAWGQGTLVTVSS
VL: DIQMTQSPSSLSASVGDRVTITCKASQLVSSAVAWYQQKPGKAPKLLIYWASTLHTGVPSRFSGSGSGTDFTLTISSLQPEDFATYYCQQHYRTPFTFGQGTKLEIKRTVAAPSVFIFPPDIQMTQSPSSLSASVGDRVTITCRASEDIYNALAWYQQKPGKAPKLLIYNTDTLHTGVPSRFSGSGSGTDYTLTISSLQPEDFATYFCQHYFHYPRTFGQGTKVEIKR
B4: DVD3284 (bispecific antibody, IgG1)
VH: EVQLVQSGAEVKKPGASVKVSCKASGYTFANYGIIWVRQAPGQGLEWMGWINTYTGKPTYAQKFQGRVTMTTDTSTSTAYMELSSLRSEDTAVYYCARKLFTTMDVTDNAMDYWGQGTTVTVSSASTKGPEVQLQQSGPELVTPGASVKISCKASGYTFTKYWLGWVKQSHGKSLEWIGDIYPGYDYTHYNEKFKDTATLTVDKSSSIAYMEIRGLTSEDSAVYYCARSDGSSTYWGQGTLVTVSA
VL: DIQMTQSPSSLSASVGDRVTITCRASQDISQYLNWYQQKPGKAPKLLIYYTSRLQSGVPSRFSGSGSGTDFTLTISSLQPEDFATYFCQQGNTWPPTFGQGTKLEIKRTVAAPDVQMIQSPSSLSASLGDIVTMTCTSSQNIVHSNGNTYLEWFQQKPGKAPKLLIYKVSNRFSGVPSRFSGSRYGTDFTLTISSLEDEDLATYFCFQVSHVPYTFGGGTKLEIKR
B5: DVD3287 (bispecific antibody)
VH: EVQLVQSGAEVKKPGASVKVSCKASGYTFANYGIIWVRQAPGQGLEWMGWINTYTGKPTYAQKFQGRVTMTTDTSTSTAYMELSSLRSEDTAVYYCARKLFTTMDVTDNAMDYWGQGTTVTVSSASTKGPSVFPLAPEVQLQQSGPELVTPGASVKISCKASGYTFTKYWLGWVKQSHGKSLEWIGDIYPGYDYTHYNEKFKDTATLTVDKSSSIAYMEIRGLTSEDSAVYYCARSDGSSTYWGQGTLVTVSA
VL: B4 VL
B6: DVD3286 (bispecific antibody, IgG1)
VH: B4 VH
VL: DIQMTQSPSSLSASVGDRVTITCRASQDISQYLNWYQQKPGKAPKLLIYYTSRLQSGVPSRFSGSGSGTDFTLTISSLQPEDFATYFCQQGNTWPPTFGQGTKLEIKRTVAAPSVFIFPPDVQMIQSPSSLSASLGDIVTMTCTSSQNIVHSNGNTYLEWFQQKPGKAPKLLIYKVSNRFSGVPSRFSGSRYGTDFTLTISSLEDEDLATYFCFQVSHVPYTFGGGTKLEIKR
B7: DVD3239 (bispecific antibody, IgG1)
VH: EVQLVESGGGLVQPGGSLRLSCAASGFSFSKYWLGWVRQAPGKGLEWVSDIYPGYDYTHYNEKFKDRFTISADTSKNTAYLQMNSLRAEDTAVYYCARSDGSSTYWGQGTLVTVSSASTKGPEVQLVQSGAEVKKPGASVKVSCKASGYTFNNYGIIWVRQAPGQGLEWMGWINTYTGKPTYAQKFQGRVTMTTDTSTSTAYMELSSLRSEDTAVYYCARKLFNTVAVTDNAMDYWGQGTTVTVSS
VL: DIQMTQSPSSLSASVGDRVTITCTSSQNIVHSNGNTYLEWYQQKPGKAPKLLIYKVSNRFSGVPSRFSGSGSGTDFTLTISSLQPEDFATYYCFQVSHVPYTFGQGTKVEIKRTVAAPDIQMTQSPSSLSASVGDRVTITCRASQDIENYLNWYQQKPGKAPKLLIYYTSRLQSGVPSRFSGSGSGTDFTLTISSLQPEDFATYFCQQGNTQPPTFGQGTKLEIKR
B8: DVD3241 (bispecific antibody, IgG1)
VH: B7 VH
VL: DIQMTQSPSSLSASVGDRVTITCTSSQNIVHSNGNTYLEWYQQKPGKAPKLLIYKVSNRFSGVPSRFSGSGSGTDFTLTISSLQPEDFATYYCFQVSHVPYTFGQGTKVEIKRTVAAPSVFIFPPDIQMTQSPSSLSASVGDRVTITCRASQDIENYLNWYQQKPGKAPKLLIYYTSRLQSGVPSRFSGSGSGTDFTLTISSLQPEDFATYFCQQGNTQPPTFGQGTKLEIKR
B9: DVD3242 (bispecific antibody, IgG1)
VH: EVQLVESGGGLVQPGGSLRLSCAASGFSFSKYWLGWVRQAPGKGLEWVSDIYPGYDYTHYNEKFKDRFTISADTSKNTAYLQMNSLRAEDTAVYYCARSDGSSTYWGQGTLVTVSSASTKGPSVFPLAPEVQLVQSGAEVKKPGASVKVSCKASGYTFNNYGIIWVRQAPGQGLEWMGWINTYTGKPTYAQKFQGRVTMTTDTSTSTAYMELSSLRSEDTAVYYCARKLFNTVAVTDNAMDYWGQGTTVTVSS
VL: B7 VL
B10: DVD3283 (bispecific antibody, IgG1)
VH: EVQLVQSGAEVKKPGASVKVSCKASGYTFANYGIIWVRQAPGQGLEWMGWINTYTGKPTYAQKFQGRVTMTTDTSTSTAYMELSSLRSEDTAVYYCARKLFTTMDVTDNAMDYWGQGTTVTVSSGGGGSGGGGSEVQLQQSGPELVTPGASVKISCKASGYTFTKYWLGWVKQSHGKSLEWIGDIYPGYDYTHYNEKFKDTATLTVDKSSSIAYMEIRGLTSEDSAVYYCARSDGSSTYWGQGTLVTVSA
VL: DIQMTQSPSSLSASVGDRVTITCRASQDISQYLNWYQQKPGKAPKLLIYYTSRLQSGVPSRFSGSGSGTDFTLTISSLQPEDFATYFCQQGNTWPPTFGQGTKLEIKRGGSGGGGSGDVQMIQSPSSLSASLGDIVTMTCTSSQNIVHSNGNTYLEWFQQKPGKAPKLLIYKVSNRFSGVPSRFSGSRYGTDFTLTISSLEDEDLATYFCFQVSHVPYTFGGGTKLEIKR
B11: DVD3263 (bispecific antibody, IgG1)
VH: EVQLVESGGGLVQPGGSLRLSCAASGFTFSNYGVTWVRQAPGKGLEWVSMIWADGSTHYASSVKGRFTISRDNSKNTLYLQMNSLRAEDTAVYYCAREWQHGPVAYWGQGTLVTVSSGGGGSGGGGSEVQLQQSGPELVTPGASVKISCKASGYTFTKYWLGWVKQSHGKSLEWIGDIYPGYDYTHYNEKFKDTATLTVDKSSSIAYMEIRGLTSEDSAVYYCARSDGSSTYWGQGTLVTVSA
VL: DIQMTQSPSSLSASVGDRVTITCRASQLVSSAVAWYQQKPGKAPKLLIYWASARHTGVPSRFSGSGSGTDFTLTISSLQPEDFATYYCQQHYKTPFTFGQGTKLEIKRGGSGGGGSGDVQMIQSPSSLSASLGDIVTMTCTSSQNIVHSNGNTYLEWFQQKPGKAPKLLIYKVSNRFSGVPSRFSGSRYGTDFTLTISSLEDEDLATYFCFQVSHVPYTFGGGTKLEIKR
B12: DVD3264 (bispecific antibody, IgG1)
VH: EVQLVESGGGLVQPGGSLRLSCAASGFTFSNYGVTWVRQAPGKGLEWVSMIWADGSTHYASSVKGRFTISRDNSKNTLYLQMNSLRAEDTAVYYCAREWQHGPVAYWGQGTLVTVSSASTKGPEVQLQQSGPELVTPGASVKISCKASGYTFTKYWLGWVKQSHGKSLEWIGDIYPGYDYTHYNEKFKDTATLTVDKSSSIAYMEIRGLTSEDSAVYYCARSDGSSTYWGQGTLVTVSA
VL: DIQMTQSPSSLSASVGDRVTITCRASQLVSSAVAWYQQKPGKAPKLLIYWASARHTGVPSRFSGSGSGTDFTLTISSLQPEDFATYYCQQHYKTPFTFGQGTKLEIKRTVAAPDVQMIQSPSSLSASLGDIVTMTCTSSQNIVHSNGNTYLEWFQQKPGKAPKLLIYKVSNRFSGVPSRFSGSRYGTDFTLTISSLEDEDLATYFCFQVSHVPYTFGGGTKLEIKR

Biological target: Recombinant Human TNF-α/TNFSF1A (human, UniProt P01375 77-233)
Sequence (P01375 77-233 limits assumed): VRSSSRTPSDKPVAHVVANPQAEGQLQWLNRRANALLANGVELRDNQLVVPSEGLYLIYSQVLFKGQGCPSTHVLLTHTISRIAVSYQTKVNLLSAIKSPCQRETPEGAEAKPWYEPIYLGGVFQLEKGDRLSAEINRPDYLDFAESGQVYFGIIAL
Experiment: cell-based or functional assay

Row | Binder | C-Terminal VD huTNFα Neutralization Assay IC50 | N-Terminal VD huTNFα Neutralization Assay IC50
1 | B1 | 0.168 nM | 
2 | B2 |  | 0.002 nM
3 | B3 |  | 0.01 nM
4 | B4 |  | 0.012 nM
5 | B5 |  | 0.018 nM
6 | B6 |  | 0.002 nM
7 | B7 | 1.62 nM | 
8 | B8 | 0.112 nM | 
9 | B9 | 0.13 nM | 
10 | B10 |  | 0.002 nM
11 | B11 |  | 0.008 nM
12 | B12 |  | 0.006 nM

Reference: patent US20140271457A1 (AbbVie / Abbott, published 2014)
